What was measured:
[1] = biological target: T1, CAIX expressed on human renal cell carcinoma line A498 (human, UniProt Q16790 38-459); assay: cell-based or functional assay
[2] = biological target: T1, CAIX expressed on human renal cell …; assay: flow cytometry on A498 cells, MFI fold over background
Source text: Human renal cell carcinoma line A498 expressing CAIX was used to assay the binding of TriNKETs to the tumor associated antigen CAIX.

B1: A49-TriNKET-CAIX (ADI-27749 and a CAIX-binding domain) (bispecific antibody, V domains shown)
VH 1: EVQLVESGGGLVKPGGSLRLSCAASGFTFSSYSMNWVRQAPGKGLEWVSSISSSSSYIYYADSVKGRFTISRDNAKNSLYLQMNSLRAEDTAVYYCARGAPMGAAAGWFDPWGQGTLVTVSS
VL 1: DIQMTQSPSSVSASVGDRVTITCRASQGISSWLAWYQQKPGKAPKLLIYAASSLQSGVPSRFSGSGSGTDFTLTISSLQPEDFATYYCQQGVSFPRTFGGGTKVEIK
VH 2: QVELVESGGGLVQPGGSLRLSCAASGFTFSSYGMSWVRQAPGKGLEWVSGISSLGSTTYYADSVKGRFTISRDNSKNTLYLQMNSLRAEDTAVYYCARTGSPGTFMHGDHWGQGTLVTVSS
VL 2: DIQMTQSPSSLSASVGDRVTITCRASQDINNYLSWYQQKPGKAPKLLIYGASNLQSGVPSRFSGSGSGTDFTLTISSLQPEDFAVYYCQQYYGRPTTFGQGTKVEIK
B1 was tested, and the “specific lysis of A498 target cells by rested KHYG-1 cells (DELFIA cytotoxicity assay), increase over co-culture without TriNKET” value [1] was ~20%.

B2: F47-TriNKET-CAIX (ADI-29447 and a CAIX-binding domain) (bispecific antibody, V domains shown)
VH 1: QVQLQQWGAGLLKPSETLSLTCAVYGGSFSGYYWSWIRQPPGKGLEWIGEIDHSGSTNYNPSLKSRVTISVDTSKNQFSLKLSSVTAADTAVYYCARARGPWSFDPWGQGTLVTVSS
VL 1: DIQMTQSPSTLSASVGDRVTITCRASQSISSWLAWYQQKPGKAPKLLIYKASSLESGVPSRFSGSGSGTEFTLTISSLQPDDFATYYCQQYDTFITFGGGTKVEIK
VH 2: QVELVESGGGLVQPGGSLRLSCAASGFTFSSYGMSWVRQAPGKGLEWVSGISSLGSTTYYADSVKGRFTISRDNSKNTLYLQMNSLRAEDTAVYYCARTGSPGTFMHGDHWGQGTLVTVSS
VL 2: DIQMTQSPSSLSASVGDRVTITCRASQDINNYLSWYQQKPGKAPKLLIYGASNLQSGVPSRFSGSGSGTDFTLTISSLQPEDFAVYYCQQYYGRPTTFGQGTKVEIK
B2: binds [2].

B3: E79-TriNKET-CAIX (ADI-29379 and a CAIX-binding domain) (bispecific antibody, V domains shown)
VH 1: QVQLVQSGAEVKKPGASVKVSCKASGYTFTSYYMHWVRQAPGQGLEWMGIINPSGGSTSYAQKFQGRVTMTRDTSTSTVYMELSSLRSEDTAVYYCARGAPNYGDTTHDYYYMDVWGKGTTVTVSS
VL 1: EIVMTQSPATLSVSPGERATLSCRASQSVSSNLAWYQQKPGQAPRLLIYGASTRATGIPARFSGSGSGTEFTLTISSLQSEDFAVYYCQQYDDWPFTFGGGTKVEIK
VH 2: QVELVESGGGLVQPGGSLRLSCAASGFTFSSYGMSWVRQAPGKGLEWVSGISSLGSTTYYADSVKGRFTISRDNSKNTLYLQMNSLRAEDTAVYYCARTGSPGTFMHGDHWGQGTLVTVSS
VL 2: DIQMTQSPSSLSASVGDRVTITCRASQDINNYLSWYQQKPGKAPKLLIYGASNLQSGVPSRFSGSGSGTDFTLTISSLQPEDFAVYYCQQYYGRPTTFGQGTKVEIK
With B3 the “specific lysis of A498 target cells by rested KHYG-1 cells (DELFIA cytotoxicity assay), increase over co-culture without TriNKET” value [1] was ~20%.

B4: A44-TriNKET-CAIX (ADI-27744 and a CAIX-binding domain) (bispecific antibody, V domains shown)
VH 1: not shown
VL 1: DIQMTQSPSSVSASVGDRVTITCRASQGIDSWLAWYQQKPGKAPKLLIYAASSLQSGVPSRFSGSGSGTDFTLTISSLQPEDFATYYCQQGVSYPRTFGGGTKVEIK
VH 2: QVELVESGGGLVQPGGSLRLSCAASGFTFSSYGMSWVRQAPGKGLEWVSGISSLGSTTYYADSVKGRFTISRDNSKNTLYLQMNSLRAEDTAVYYCARTGSPGTFMHGDHWGQGTLVTVSS
VL 2: DIQMTQSPSSLSASVGDRVTITCRASQDINNYLSWYQQKPGKAPKLLIYGASNLQSGVPSRFSGSGSGTDFTLTISSLQPEDFAVYYCQQYYGRPTTFGQGTKVEIK
With B4 the “specific lysis of A498 target cells by rested KHYG-1 cells (DELFIA cytotoxicity assay), increase over co-culture without TriNKET” value [1] was ~20%.

— patent US20210130474A1 (DRAGONFLY THERAPEUTICS, published 2021)
